# Test results taken from US20250235548A1 (Zymeworks, published 2025).
# B1: v29456-MC-GGFG-AM-DXd1 DAR 8 (antibody, human IgG1, kappa)
# heavy: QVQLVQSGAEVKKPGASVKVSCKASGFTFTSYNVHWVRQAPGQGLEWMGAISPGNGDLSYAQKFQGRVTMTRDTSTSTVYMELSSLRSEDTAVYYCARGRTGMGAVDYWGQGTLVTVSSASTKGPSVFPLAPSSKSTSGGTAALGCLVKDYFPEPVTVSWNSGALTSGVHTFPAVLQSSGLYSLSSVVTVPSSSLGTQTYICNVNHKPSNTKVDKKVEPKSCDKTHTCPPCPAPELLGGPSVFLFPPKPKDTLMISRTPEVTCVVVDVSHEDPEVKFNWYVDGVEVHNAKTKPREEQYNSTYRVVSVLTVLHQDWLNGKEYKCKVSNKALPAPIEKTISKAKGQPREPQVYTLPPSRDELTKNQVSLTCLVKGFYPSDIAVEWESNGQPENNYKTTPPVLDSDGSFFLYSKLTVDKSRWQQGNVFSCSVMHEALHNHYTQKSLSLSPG
# light: DVQMTQSPSSLSASVGDRVTITCRASQDVYSYLNWYQQKPGKAVKLLIYYTSRLQSGVPSRFSGSGSGTDYTLTISSLQPEDFATYYCQQYNIFPWTFGQGTKLEIKRTVAAPSVFIFPPSDEQLKSGTASVVCLLNNFYPREAKVQWKVDNALQSGNSQESVTEQDSKDSTYSLSSTLTLSKADYEKHKVYACEVTHQGLSSPVTKSFNRGEC
# modifications: MC-GGFG-AM-DXd1 drug-linker on reduced cysteines (maleimide); DAR 8 for the whole antibody
# B2: v29456-MT-GGFG-Compound 140 DAR 8 (antibody, human IgG1, kappa)
# heavy: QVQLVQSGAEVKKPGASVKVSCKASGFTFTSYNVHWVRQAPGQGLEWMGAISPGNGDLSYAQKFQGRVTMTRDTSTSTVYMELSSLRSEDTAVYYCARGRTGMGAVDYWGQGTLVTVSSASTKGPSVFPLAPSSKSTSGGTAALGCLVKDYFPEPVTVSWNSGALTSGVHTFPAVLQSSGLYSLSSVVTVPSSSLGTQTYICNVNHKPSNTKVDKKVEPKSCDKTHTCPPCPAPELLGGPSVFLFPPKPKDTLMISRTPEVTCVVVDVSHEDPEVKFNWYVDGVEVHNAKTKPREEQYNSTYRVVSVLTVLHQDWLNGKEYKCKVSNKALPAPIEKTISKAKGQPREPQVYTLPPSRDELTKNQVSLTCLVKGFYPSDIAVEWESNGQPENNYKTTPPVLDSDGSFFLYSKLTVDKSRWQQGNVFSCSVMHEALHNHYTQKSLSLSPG
# light: B1 light
# modifications: MT-GGFG-Compound 140 drug-linker on reduced cysteines (maleimide); DAR 8 for the whole antibody
# B3: v29456-MT-GGFG-AM-Compound 141 DAR 8 (antibody, human IgG1, kappa)
# heavy: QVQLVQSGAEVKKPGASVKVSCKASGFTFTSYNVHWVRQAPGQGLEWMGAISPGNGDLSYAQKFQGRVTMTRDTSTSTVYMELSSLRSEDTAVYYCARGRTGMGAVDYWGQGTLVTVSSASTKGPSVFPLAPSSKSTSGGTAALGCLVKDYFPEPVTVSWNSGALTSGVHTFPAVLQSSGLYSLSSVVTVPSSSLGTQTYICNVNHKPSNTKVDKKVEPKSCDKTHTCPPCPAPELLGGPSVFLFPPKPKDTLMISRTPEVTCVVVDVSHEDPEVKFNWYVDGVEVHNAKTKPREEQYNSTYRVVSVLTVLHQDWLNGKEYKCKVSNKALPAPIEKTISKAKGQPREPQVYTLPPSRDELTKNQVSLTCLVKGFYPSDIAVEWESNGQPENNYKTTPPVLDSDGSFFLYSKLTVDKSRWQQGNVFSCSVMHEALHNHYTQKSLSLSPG
# light: B1 light
# modifications: MT-GGFG-AM-Compound 141 drug-linker on reduced cysteines (maleimide); DAR 8 for the whole antibody
# B4: v29456-MT-GGFG-AM-Compound 139 DAR 8 (antibody, human IgG1, kappa)
# heavy: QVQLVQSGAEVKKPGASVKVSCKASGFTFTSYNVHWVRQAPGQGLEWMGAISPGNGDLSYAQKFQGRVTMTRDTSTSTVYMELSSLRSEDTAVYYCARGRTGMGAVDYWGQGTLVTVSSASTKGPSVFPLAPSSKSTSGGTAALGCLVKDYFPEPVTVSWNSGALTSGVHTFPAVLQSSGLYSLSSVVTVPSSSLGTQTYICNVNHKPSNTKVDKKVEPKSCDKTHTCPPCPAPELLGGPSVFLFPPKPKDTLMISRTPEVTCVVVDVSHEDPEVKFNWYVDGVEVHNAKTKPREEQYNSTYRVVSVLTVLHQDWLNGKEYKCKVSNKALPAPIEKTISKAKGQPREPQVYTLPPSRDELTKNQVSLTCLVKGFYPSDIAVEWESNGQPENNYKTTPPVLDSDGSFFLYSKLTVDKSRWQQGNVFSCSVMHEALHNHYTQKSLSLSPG
# light: B1 light
# modifications: MT-GGFG-AM-Compound 139 drug-linker on reduced cysteines (maleimide); DAR 8 for the whole antibody
# B5: v29456-MC-GGFG-AM-Compound 139 DAR 4 (antibody, human IgG1, kappa)
# heavy: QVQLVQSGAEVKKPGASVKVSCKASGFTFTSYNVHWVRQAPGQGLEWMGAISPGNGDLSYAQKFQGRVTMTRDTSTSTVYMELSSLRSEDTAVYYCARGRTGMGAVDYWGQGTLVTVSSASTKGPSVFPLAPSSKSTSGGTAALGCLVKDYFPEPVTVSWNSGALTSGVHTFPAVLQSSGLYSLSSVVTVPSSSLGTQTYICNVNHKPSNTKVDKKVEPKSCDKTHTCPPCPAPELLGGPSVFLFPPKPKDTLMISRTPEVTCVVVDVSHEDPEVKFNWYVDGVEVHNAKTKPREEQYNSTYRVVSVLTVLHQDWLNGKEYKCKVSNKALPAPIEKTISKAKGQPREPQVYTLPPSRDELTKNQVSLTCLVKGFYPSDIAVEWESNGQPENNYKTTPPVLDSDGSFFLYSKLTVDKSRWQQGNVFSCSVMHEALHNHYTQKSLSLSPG
# light: B1 light
# modifications: MC-GGFG-AM-Compound 139 drug-linker on reduced cysteines (maleimide); target DAR 4, printed DAR 3.4, for the whole antibody
# B6: v29456-MC-GGFG-Compound 141 DAR 4 (antibody, human IgG1, kappa)
# heavy: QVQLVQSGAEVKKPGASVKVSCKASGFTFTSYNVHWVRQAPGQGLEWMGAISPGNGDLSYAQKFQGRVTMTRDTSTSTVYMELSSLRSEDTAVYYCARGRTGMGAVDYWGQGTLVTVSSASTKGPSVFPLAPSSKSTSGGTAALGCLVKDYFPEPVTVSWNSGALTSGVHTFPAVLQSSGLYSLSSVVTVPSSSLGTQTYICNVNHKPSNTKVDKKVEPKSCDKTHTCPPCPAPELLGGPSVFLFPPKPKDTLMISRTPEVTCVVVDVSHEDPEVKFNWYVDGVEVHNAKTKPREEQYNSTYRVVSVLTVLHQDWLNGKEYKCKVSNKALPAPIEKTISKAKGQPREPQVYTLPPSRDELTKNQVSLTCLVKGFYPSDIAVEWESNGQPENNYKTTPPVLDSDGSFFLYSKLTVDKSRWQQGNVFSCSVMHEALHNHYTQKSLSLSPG
# light: B1 light
# modifications: MC-GGFG-Compound 141 drug-linker on reduced cysteines (maleimide); target DAR 4, printed DAR 3.4, for the whole antibody
# B7: v29456-MC-GGFG-Compound 141 DAR 8 (antibody, human IgG1, kappa)
# heavy: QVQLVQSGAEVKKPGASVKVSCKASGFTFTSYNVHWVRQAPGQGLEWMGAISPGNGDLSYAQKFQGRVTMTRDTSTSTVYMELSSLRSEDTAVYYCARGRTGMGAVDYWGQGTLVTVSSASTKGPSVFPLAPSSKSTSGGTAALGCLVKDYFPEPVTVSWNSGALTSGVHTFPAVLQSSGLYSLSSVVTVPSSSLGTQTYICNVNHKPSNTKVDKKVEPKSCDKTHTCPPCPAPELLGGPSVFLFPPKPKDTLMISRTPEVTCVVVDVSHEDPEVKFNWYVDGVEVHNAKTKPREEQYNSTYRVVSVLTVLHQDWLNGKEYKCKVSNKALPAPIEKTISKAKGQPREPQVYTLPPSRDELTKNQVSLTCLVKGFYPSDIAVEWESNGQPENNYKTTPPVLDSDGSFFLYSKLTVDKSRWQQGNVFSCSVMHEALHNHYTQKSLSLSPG
# light: B1 light
# modifications: MC-GGFG-Compound 141 drug-linker on reduced cysteines (maleimide); DAR 8 for the whole antibody
# B8: v38591 (humanized anti-NaPi2b antibody, H1L2, wild-type Fc) (antibody, human IgG1, kappa)
# heavy: not shown
# light: B1 light
# B9: v38591-MC-GGFG-AM-Compound 139 DAR 4 (antibody, human IgG1, kappa)
# heavy: not shown
# light: B1 light
# modifications: drug-linker MC-GGFG-AM-Compound 139 conjugated by maleimide after TCEP reduction; DAR 4 for the whole antibody; sites not stated
# B10: v40502-MC-GGFG-AM-Compound 139 DAR 4 (antibody, human IgG1, kappa, L234A L235A)
# heavy: not shown
# light: B1 light
# modifications: drug-linker MC-GGFG-AM-Compound 139 conjugated by maleimide after TCEP reduction; DAR 4 for the whole antibody (printed 3.3 in Table 45.1); sites not stated
# B11: v40502 (LALADS) anti-NaPi2b antibody (antibody, human IgG1, kappa, L234A L235A)
# heavy: not shown
# light: B1 light
# B12: v21995 (palivizumab, anti-RSV antibody) (antibody, human IgG1, kappa, V domains shown)
# VH: QVTLRESGPALVKPTQTLTLTCTFSGFSLSTSGMSVGWIRQPPGKALEWLADIWWDDKKDYNPSLKSRLTISKDTSKNQVVLKVTNMDPADTATYYCARSMITNWYFDVWGAGTTVTVSS
# VL: DIQMTQSPSTLSASVGDRVTITCKSQLSVGYMHWYQQKPGKAPKLLIYDTSKLASGVPSRFSGSGSGTEFTLTISSLQPDDFATYYCFQGSGYPFTFGGGTKLEIKR
# B13: v29456-MT-GGFG-AM-Compound 136 DAR 8 (antibody, human IgG1, kappa)
# heavy: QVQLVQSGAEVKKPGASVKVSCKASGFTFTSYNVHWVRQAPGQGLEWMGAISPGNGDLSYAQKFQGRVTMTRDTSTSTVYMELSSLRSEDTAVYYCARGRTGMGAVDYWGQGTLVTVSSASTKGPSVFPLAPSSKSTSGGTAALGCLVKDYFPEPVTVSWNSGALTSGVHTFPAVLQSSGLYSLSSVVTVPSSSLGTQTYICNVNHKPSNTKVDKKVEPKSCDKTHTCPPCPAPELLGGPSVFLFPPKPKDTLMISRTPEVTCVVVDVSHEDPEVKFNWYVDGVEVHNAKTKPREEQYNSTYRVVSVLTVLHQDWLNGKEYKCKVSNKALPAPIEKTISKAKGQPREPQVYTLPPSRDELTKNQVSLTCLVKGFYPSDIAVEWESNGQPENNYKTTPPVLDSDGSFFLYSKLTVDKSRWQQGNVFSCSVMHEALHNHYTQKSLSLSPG
# light: B1 light
# modifications: MT-GGFG-AM-Compound 136 drug-linker on reduced cysteines (maleimide); DAR 8 for the whole antibody
# B14: v29456-MT-GGFG-AM-Compound 129 DAR 8 (antibody, human IgG1, kappa)
# heavy: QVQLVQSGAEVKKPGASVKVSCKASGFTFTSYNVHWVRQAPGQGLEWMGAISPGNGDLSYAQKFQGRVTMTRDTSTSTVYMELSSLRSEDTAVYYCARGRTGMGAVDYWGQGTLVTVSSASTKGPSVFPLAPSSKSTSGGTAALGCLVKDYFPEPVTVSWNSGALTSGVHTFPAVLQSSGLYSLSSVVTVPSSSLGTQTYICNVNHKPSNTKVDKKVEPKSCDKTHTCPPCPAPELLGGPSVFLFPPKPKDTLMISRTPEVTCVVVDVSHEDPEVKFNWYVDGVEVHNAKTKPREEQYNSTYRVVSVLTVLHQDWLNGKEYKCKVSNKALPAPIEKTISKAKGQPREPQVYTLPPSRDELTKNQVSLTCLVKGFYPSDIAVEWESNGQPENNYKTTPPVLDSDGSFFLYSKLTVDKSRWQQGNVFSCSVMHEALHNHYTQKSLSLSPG
# light: B1 light
# modifications: MT-GGFG-AM-Compound 129 drug-linker on reduced cysteines (maleimide); DAR 8 for the whole antibody
# B15: v29456-MT-GGFG-Compound 148 DAR 8 (antibody, human IgG1, kappa)
# heavy: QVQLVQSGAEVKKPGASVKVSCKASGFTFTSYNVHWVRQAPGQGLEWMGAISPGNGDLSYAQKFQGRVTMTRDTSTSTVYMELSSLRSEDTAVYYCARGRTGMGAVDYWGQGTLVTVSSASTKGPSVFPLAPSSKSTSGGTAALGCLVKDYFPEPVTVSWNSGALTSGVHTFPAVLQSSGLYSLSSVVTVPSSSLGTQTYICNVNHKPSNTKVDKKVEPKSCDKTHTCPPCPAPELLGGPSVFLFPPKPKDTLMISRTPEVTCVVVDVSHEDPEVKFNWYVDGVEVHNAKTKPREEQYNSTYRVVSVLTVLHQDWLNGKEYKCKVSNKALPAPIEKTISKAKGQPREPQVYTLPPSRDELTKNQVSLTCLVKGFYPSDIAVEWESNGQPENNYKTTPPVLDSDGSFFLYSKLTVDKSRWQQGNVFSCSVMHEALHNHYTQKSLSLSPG
# light: B1 light
# modifications: MT-GGFG-Compound 148 drug-linker on reduced cysteines (maleimide); DAR 8 for the whole antibody
# B16: v18993-MCvc-PABC-MMAE (lifastuzumab vedotin) (antibody, human IgG1, kappa)
# heavy 1: GEVQLVESGGGLVQPGGSLRLSCAASGFSFSDFAMSWVRQAPGKGLEWVATIGRVAFHTYYPDSMKGRFTISRDNSKNTLYLQMNSLRAEDTAVYYCARHRGFDVGHFDFWGQGTLVTVSSASTKGPSVFPLAPSSKSTSGGTAALGCLVKDYFPEPVTVSWNSGALTSGVHTFPAVLQSSGLYSLSSVVTVPSSSLGTQTYICNVNHKPSNTKVDKKVEPKSCDKTHTCPPCPAPELLGGPSVFLFPPKPKDTLMISRTPEVTCVVVDVSHEDPEVKFNWYVDGVEVHNAKTKPREEQYNSTYRVVSVLTVLHQDWLNGKEYKCKVSNKALPAPIEKTISKAKGQPREPQVYVYPPSRDELTKNQVSLTCLVKGFYPSDIAVEWESNGQPENNYKTTPPVLDSDGSFALVSKLTVDKSRWQQGNVFSCSVMHEALHNHYTQKSLSLSPG
# heavy 2: not shown
# light: GDIQMTQSPSSLSASVGDRVTITCRSSETLVHSSGNTYLEWYQQKPGKAPKLLIYRVSNRFSGVPSRFSGSGSGTDFTLTISSLQPEDFATYYCFQGSFNPLTFGQGTKVEIKRTVAAPSVFIFPPSDEQLKSGTASVVCLLNNFYPREAKVQWKVDNALQSGNSQESVTEQDSKDSTYSLSSTLTLSKADYEKHKVYACEVTHQGLSSPVTKSFNRGEC
# modifications: drug-linker MCvc-PABC-MMAE; DAR 4.1 for the whole antibody; sites not stated
# Target: T1, human sodium-dependent phosphate transporter 2B (NaPi2b) (human, UniProt O95436 1-690)
# T1 sequence: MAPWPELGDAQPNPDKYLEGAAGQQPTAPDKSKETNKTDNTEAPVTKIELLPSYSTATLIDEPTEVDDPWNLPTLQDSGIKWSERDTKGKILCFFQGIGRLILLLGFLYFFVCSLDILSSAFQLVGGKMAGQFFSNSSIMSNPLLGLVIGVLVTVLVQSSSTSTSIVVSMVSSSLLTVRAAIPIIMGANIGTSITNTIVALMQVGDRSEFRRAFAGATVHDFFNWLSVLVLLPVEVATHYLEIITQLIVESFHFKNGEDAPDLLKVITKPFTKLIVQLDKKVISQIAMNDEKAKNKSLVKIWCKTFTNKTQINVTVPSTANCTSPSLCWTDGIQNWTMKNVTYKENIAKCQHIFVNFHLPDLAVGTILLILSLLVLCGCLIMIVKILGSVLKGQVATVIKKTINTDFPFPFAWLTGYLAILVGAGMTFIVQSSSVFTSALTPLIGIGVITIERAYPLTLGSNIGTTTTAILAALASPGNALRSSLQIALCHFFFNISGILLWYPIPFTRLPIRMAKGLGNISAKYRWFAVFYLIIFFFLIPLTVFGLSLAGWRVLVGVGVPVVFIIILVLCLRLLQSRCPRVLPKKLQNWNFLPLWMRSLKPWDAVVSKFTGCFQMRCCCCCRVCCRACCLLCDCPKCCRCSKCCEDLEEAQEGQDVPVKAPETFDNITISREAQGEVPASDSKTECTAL
# Experiment: cell-based or functional assay
Binder,"EC50 of cytotoxicity, HCC-78 3D spheroids, 6 days, CellTiter-Glo 3D [nM]","EC50 of cytotoxicity, IGROV-1 3D spheroids, 6 days, CellTiter-Glo 3D [nM]"
B1,0.6,0.27
B2,0.19,0.25
B3,0.33,0.21
B4,0.82,0.37

# Target: T1, human sodium-dependent phosphate …
# Experiment: cell-based or functional assay
# Remark: another data set of the same source
Binder,"EC50 of cytotoxicity, IGROV-1 3D spheroids [nM]","EC50 of cytotoxicity, TOV-21G:HDFa (1:1) 3D spheroids [nM]"
B5,0.88,0.76
B6,1.31,0.99
B7,0.44,0.9

# Target: T2, human sodium-dependent phosphate transporter 2B (NaPi2b) (human, UniProt O95436 1-690)
# T2 sequence: T1 sequence
# Experiment: cell-based or functional assay
Binder,"Internalized Fluorescence Fold-Over Untreated, H441, 4 hours, 2.5 nM [fold]","Internalized Fluorescence Fold-Over Untreated, H441, 24 hours, 2.5 nM [fold]","Internalized Fluorescence Fold-Over Untreated, HCC-78, 4 hours, 2.5 nM [fold]","Internalized Fluorescence Fold-Over Untreated, HCC-78, 24 hours, 2.5 nM [fold]","Internalized Fluorescence Fold-Over Untreated, IGROV-1, 4 hours, 2.5 nM [fold]","Internalized Fluorescence Fold-Over Untreated, IGROV-1, 24 hours, 2.5 nM [fold]"
B8,1.2,1.9,5.7,35,7.2,26
B9,1.2,2,5.6,35.9,7.1,26.6
B10,1.2,1.9,5.3,36.5,6.8,25.4
B11,1.2,1.9,5.5,35.5,7,25.3
B12,1,1.1,1,1.1,0.9,1

# Target: T1, human sodium-dependent phosphate …
# Experiment: cell-based or functional assay
# Remark: another data set of the same source
Binder,"EC50 of cytotoxicity, 2D monolayer, HCC-78 cells, 4 days, CellTiter-Glo [nM]","EC50 of cytotoxicity, 2D monolayer, IGROV-1 cells, 4 days, CellTiter-Glo [nM]","EC50 of cytotoxicity, 2D monolayer, HCC-78 cells, 4 days, CellTiter-Glo (row printed as v29456-MT-GGFG-AM-DXd1) [nM]","EC50 of cytotoxicity, 2D monolayer, IGROV-1 cells, 4 days, CellTiter-Glo (row printed as v29456-MT-GGFG-AM-DXd1) [nM]"
B13,0.43,4.48,–,–
B1,–,–,0.55,0.45
B2,0.6,–,–,–
B14,0.42,1.11,–,–
B3,0.26,1.56,–,–
B4,0.65,1.71,–,–
B15,1.98,–,–,–

# Target: T1, human sodium-dependent phosphate …
# Experiment: cell-based or functional assay
# Remark: another data set of the same source
Binder,"EC50 of cytotoxicity, 2D monolayer, IGROV-1 cells [nM]","EC50 of cytotoxicity, 2D monolayer, TOV-21G cells [nM]"
B5,5.46,–
B6,16.4,–
B7,3.01,0.93

# Target: T2, human sodium-dependent phosphate …
# Experiment: cell-based or functional assay
# Remark: another data set of the same source
Binder,"EC50 (nM), in vitro cytotoxicity, H441 Spheroids [nM]","EC50 (nM), in vitro cytotoxicity, H1781 Spheroids [nM]"
B8,> 200,> 200
B9,9.85,0.95
B10,7.57,1.15
B11,> 200,> 200
B16,11.4,7.94
